This note sets out measurements from US20260193326A1 (published 2026).

The chains are these.
B1: A4-103 (VHH)
VHH: VQLQESGGGLVQPGGSLRLSCAASGSIFSLNAMGWYRQAPGKQRELVATITRGGSTNYADSVKGRFTISRDNAKNTVYLQMNSLRPEDTAVYYCHVDEVRESIWTTSNLWGQGTQVTVSS
B2: A4-101 (VHH)
VHH: B1 VHH with I27R, L30I, A32I, T49S, I50V, S55T, A73P, V77I, V99I, I103T
B3: A4-068 (VHH)
VHH: B1 VHH with P13T, S26R, I27A, A32T, Q43W, I50V, D60G, S83N, I103S
B4: A4-088 (VHH)
VHH: B1 VHH with P13T, I27R, A32T, T49A, I50V, S55N, A59G, S61F, V99L, I103S
B5: A4-090 (VHH)
VHH: VQLQESGGGLVQPGGSLRLSCVASGSRFIINTMGWYRQAPGKQRELVATFTRGGNTNYAESVKGRFTISRDNGKSTVYLQMNSLRPEDTAVYYCHVDEVRESTWTTSNLWGQGTQVTVSS
B6: A4-093 (VHH)
VHH: VQLQESGGGLVQTGGSLRLSCAASGSIFIINTMGWYRQRAGKQRELVATVTRGGSTNYADSVKGRFTISRDNAKNTVYLQMNTLRPEDTAVYYCHVDELRQSSWTTSNLWGQGTQVTVSS
B7: A4-083 (VHH)
VHH: VQLQESGGGLVQTGGSLKLSCAASGSRFSLNTMGWYRQAPRKQREFVAAVTRGGNTNYGDFVKGRFTISRDNAKNTVYLQMNSLRPEDTAVYYCHVDELRESSWTTSNLWGQGTQVTVSS
B8: A4-074 (VHH)
VHH: B1 VHH with P13S, I27M, A32T, S55G, N57S, V99L, E101Q, I103S
B9: A4-072 (VHH)
VHH: VQLQESGGGLAQPGGSLRLSCAASGSSFVINTMGWYRQAPGKQREFVATVTRGGSTNYGEFVKGRFTISRDNAKNTVYLQMNSLRPEDTAVYYCHVDELRQSSWTTSNLWGQGTQVTVSS
B10: A4-089 (VHH)
VHH: B5 VHH with V22A, R27N, I29S, G53A, E60D, S75N, E101D, T103S
B11: A4-077 (VHH)
VHH: B9 VHH with A11V, S27M, V29S, T32I, V50I, G59A, E60D, Q101D
B12: A4-099 (VHH)
VHH: VQLQESGGGLVQTGGSLRLSCAASGSSFSINTMGWYRQAPGKWRELVAAVTRGGDTNYAESVKGRFTISRDNGKNTVYLQMNSLRPEDTAVYYCHIDEIRESSWTTSNLWGQGTQVTVSS
B13: A4-092 (VHH)
VHH: B6 VHH with A22L, I29S, G53A, T83S, L99I, Q101E
B14: A4-071 (VHH)
VHH: B9 VHH with L10A, A11V, P13A, S27T, V29S, F46L, E60D, S83T, V96L, L99V
B15: A4-076 (VHH)
VHH: B1 VHH with Q12H, P13S, I27M, A32T, S55G, N57S, V99L, E101Q, I103S

In general, Kd refers to the free concentration of one partner at which half of the binding sites on the other are occupied at equilibrium, for simple one-to-one binding. Low readings indicate higher affinity, high ones lower affinity. As a reminder, the koff is a measure of how fast the partners let go of each other. As a reminder, the kon is a measure of how fast the partners come together.

Substitutions are numbered along the chain they refer to.

The target of the first assay is T1, AAV8 (adeno-associated virus serotype 8).
T1 construct: also called adeno-associated virus serotype 8
Nature of the assay: SPR, AAV on CM5 chip.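 Further: surface plasmon resonance with AAV amine-coupled to the chip as ligand, nanobodies injected as analyte over a concentration series, rate constants and affinity fitted from binding curves.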
Method: (§1) AAV was amine-coupled to a CM5 sensor chip at a density of 500-800 response units (RU). Nanobodies were injected at seven concentrations (1-100 nM) with a flow rate of 45 μL/min, and chip regeneration was performed using glycine-HCl (pH 1.5). Binding curves at different nanobody concentrations were used to calculate kinetic parameters (Kₐ, Kd, KD) (Table 2 and FIG. 2).
Molecule B1 yielded a Kd of 35.1 nM, a koff of 0.00182 s⁻¹ and a kon of 51900 M⁻¹ s⁻¹.
For B2, in that order: 162 nM, 0.00129 s⁻¹ and 7970 M⁻¹ s⁻¹.

In the next assay the target is T2, AAV9 (adeno-associated virus serotype 9).
T2 construct: also called adeno-associated virus serotype 9
Nature of the assay: SPR, AAV on CM5 chip.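 Further: surface plasmon resonance with AAV amine-coupled to the chip as ligand, nanobodies injected as analyte over a concentration series, rate constants and affinity fitted from binding curves.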 In general terms: In SPR one partner is held on a chip, and binding of the other changes the refractive index at the surface.
Method: as §1
As to B1, the Kd came to 81.2 nM, the koff was 0.00107 s⁻¹ and the kon worked out at 13200 M⁻¹ s⁻¹.
On to B2, for which the Kd is 13.4 nM, the koff stood at 9e-05 s⁻¹ and the kon was 6700 M⁻¹ s⁻¹.

A further assay has as its target T3, AAV5 (adeno-associated virus serotype 5).
T3 construct: also called adeno-associated virus serotype 5
The assay is described as follows: SPR, AAV on CM5 chip.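 Further: surface plasmon resonance with AAV amine-coupled to the chip as ligand, nanobodies injected as analyte over a concentration series, rate constants and affinity fitted from binding curves.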
Method: as §1
In turn, B1 registered a Kd of 26.9 nM, a koff of 0.00137 s⁻¹ and a kon of 51000 M⁻¹ s⁻¹.
For B2, in that order: 70.8 nM, 0.00034 s⁻¹ and 4800 M⁻¹ s⁻¹.

A further assay addresses T4, AAV8 (adeno-associated virus 8).
T4 construct: also called adeno-associated virus serotype 8
The assay is described as follows: SPR, AAV amine-coupled to CM5 chip.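 Further: nanobodies flowed as analyte at seven concentrations spanning 1–100 nM over immobilized AAV (500–800 RU), kinetic constants derived by fitting the binding curves.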
Method: as §1
Regarding B3, the Kd was 182 nM, the koff was 0.00436 s⁻¹ and the kon came out at 24000 M⁻¹ s⁻¹.
For B4, in that order: 538 nM, 0.00454 s⁻¹ and 8440 M⁻¹ s⁻¹.
For B5, in that order: 14.5 nM, 0.00109 s⁻¹ and 75300 M⁻¹ s⁻¹.
Take B6: the Kd was 11.8 nM, the koff came out at 0.00196 s⁻¹ and the kon stood at 166000 M⁻¹ s⁻¹.
For B7, in that order: 42.4 nM, 0.00737 s⁻¹ and 174000 M⁻¹ s⁻¹.
Regarding B8, the Kd was 19.2 nM, the koff was determined as 0.00181 s⁻¹ and the kon was 94100 M⁻¹ s⁻¹.
For B9, in that order: 27.1 nM, 0.00044 s⁻¹ and 16300 M⁻¹ s⁻¹.
In turn, B10 gave a Kd of 4.48 nM, a koff of 0.00054 s⁻¹ and a kon of 121000 M⁻¹ s⁻¹.
For B11, in that order: 2.92 nM, 0.00038 s⁻¹ and 130000 M⁻¹ s⁻¹.
For B12, in that order: 2.57 nM, 0.0005 s⁻¹ and 194000 M⁻¹ s⁻¹.
The molecule B13 yielded a Kd of 0.106 nM, a koff of 2e-05 s⁻¹ and a kon of 188000 M⁻¹ s⁻¹.
For B14, in that order: 16.4 nM, 0.00137 s⁻¹ and 83300 M⁻¹ s⁻¹.
For B15, in that order: 98.1 nM, 0.00092 s⁻¹ and 9380 M⁻¹ s⁻¹.

For a further assay, the target named is T5, AAV2 (adeno-associated virus 2, UniProt P03135 1-735).
T5 construct: also called adeno-associated virus serotype 2
Nature of the assay: SPR, AAV amine-coupled to CM5 chip.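 Further: nanobodies flowed as analyte at seven concentrations spanning 1–100 nM over immobilized AAV (500–800 RU), kinetic constants derived by fitting the binding curves.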
Method: as §1
In the case of B3, the Kd turned out to be 11.9 nM, the koff turned out to be 0.00167 s⁻¹ and the kon stood at 141000 M⁻¹ s⁻¹.
For B4, in that order: 2420 nM, 0.00993 s⁻¹ and 4100 M⁻¹ s⁻¹.
The molecule B5 came in with a Kd of 6.83 nM, a koff of 0.00136 s⁻¹ and a kon of 199000 M⁻¹ s⁻¹.
For B6, in that order: 46 nM, 0.00103 s⁻¹ and 22400 M⁻¹ s⁻¹.
The molecule B7 had a Kd of 944 nM, a koff of 0.00344 s⁻¹ and a kon of 3640 M⁻¹ s⁻¹.
For B8, in that order: 14.3 nM, 0.00157 s⁻¹ and 110000 M⁻¹ s⁻¹.
For B9, the affinity, expressed as Kd, was 3.93 nM; the koff turned out to be 0.00021 s⁻¹; the kon stood at 53500 M⁻¹ s⁻¹.
For B10, in that order: 4.28 nM, 0.0008 s⁻¹ and 187000 M⁻¹ s⁻¹.
B11 showed a Kd of 4.63 nM, a koff of 0.00046 s⁻¹ and a kon of 99300 M⁻¹ s⁻¹.
For B12, in that order: 1.06 nM, 0.00021 s⁻¹ and 197000 M⁻¹ s⁻¹.
For B13, in that order: 1.09 nM, 6e-05 s⁻¹ and 55100 M⁻¹ s⁻¹.
For B14, in that order: 93 nM, 0.002 s⁻¹ and 21500 M⁻¹ s⁻¹.
The molecule B15 had a Kd of 73.6 nM, a koff of 0.00056 s⁻¹ and a kon of 7610 M⁻¹ s⁻¹.

A further assay deals with T6, AAV9 (adeno-associated virus 9).
T6 construct: also called adeno-associated virus serotype 9
The assay is described as follows: SPR, AAV amine-coupled to CM5 chip.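 Further: nanobodies flowed as analyte at seven concentrations spanning 1–100 nM over immobilized AAV (500–800 RU), kinetic constants derived by fitting the binding curves.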
Method: as §1
In the case of B3, the Kd came out at 31.9 nM, the koff worked out at 0.00349 s⁻¹ and the kon stood at 109000 M⁻¹ s⁻¹.
B4: the affinity, expressed as Kd, was 234 nM; the koff came out at 0.00177 s⁻¹; the kon came out at 7570 M⁻¹ s⁻¹.
With B5, the Kd is 24.9 nM, the koff came to 0.0015 s⁻¹ and the kon amounted to 60400 M⁻¹ s⁻¹.
For B6, in that order: 15.5 nM, 0.0011 s⁻¹ and 70800 M⁻¹ s⁻¹.
For B7, in that order: 92.3 nM, 0.00657 s⁻¹ and 71200 M⁻¹ s⁻¹.
For B8, the affinity, expressed as Kd, was 6.03 nM; the koff stood at 0.00017 s⁻¹; the kon stood at 28200 M⁻¹ s⁻¹.
As to B9, binding was put at a Kd of 1.29 nM, the koff is 0.00018 s⁻¹ and the kon was determined as 140000 M⁻¹ s⁻¹.
For B10, in that order: 2.29 nM, 0.00041 s⁻¹ and 179000 M⁻¹ s⁻¹.
As for B11, the Kd worked out at 1.87 nM, the koff was found to be 0.00037 s⁻¹ and the kon was found to be 198000 M⁻¹ s⁻¹.
For B12, in that order: 0.203 nM, 3e-05 s⁻¹ and 148000 M⁻¹ s⁻¹.
For B13, in that order: 1.06 nM, 9e-05 s⁻¹ and 84900 M⁻¹ s⁻¹.
For B14, in that order: 30.9 nM, 0.00176 s⁻¹ and 57000 M⁻¹ s⁻¹.
Consider B15, for which binding was put at a Kd of 8.16 nM, the koff worked out at 6e-05 s⁻¹ and the kon came to 7360 M⁻¹ s⁻¹.

In a further assay the target is T7, AAV5 (adeno-associated virus 5).
T7 construct: also called adeno-associated virus serotype 5
Nature of the assay: SPR, AAV amine-coupled to CM5 chip.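 Further: nanobodies flowed as analyte at seven concentrations spanning 1–100 nM over immobilized AAV (500–800 RU), kinetic constants derived by fitting the binding curves.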
Method: as §1
Turning to B3, the affinity, expressed as Kd, was 45.3 nM; the koff is 0.00608 s⁻¹; the kon amounted to 134000 M⁻¹ s⁻¹.
For B4, in that order: 201 nM, 0.00146 s⁻¹ and 7260 M⁻¹ s⁻¹.
B5 had a Kd of 121 nM, a koff of 0.00186 s⁻¹ and a kon of 15300 M⁻¹ s⁻¹.
As for B6, the Kd was determined as 8.21 nM, the koff was 0.00114 s⁻¹ and the kon was 139000 M⁻¹ s⁻¹.
For B7, in that order: 31 nM, 0.00287 s⁻¹ and 92500 M⁻¹ s⁻¹.
Turning to B8, binding was put at a Kd of 4.64 nM, the koff was 0.00081 s⁻¹ and the kon was 175000 M⁻¹ s⁻¹.
For B9, in that order: 3.79 nM, 0.00038 s⁻¹ and 100000 M⁻¹ s⁻¹.
For B10, in that order: 163 nM, 0.00099 s⁻¹ and 6080 M⁻¹ s⁻¹.
Molecule B11 came in with a Kd of 0.987 nM, a koff of 0.00019 s⁻¹ and a kon of 193000 M⁻¹ s⁻¹.
For B12, in that order: 4.19 nM, 0.00041 s⁻¹ and 98000 M⁻¹ s⁻¹.
For B13, in that order: 0.194 nM, 1e-05 s⁻¹ and 51600 M⁻¹ s⁻¹.
For B14, in that order: 9.46 nM, 0.00171 s⁻¹ and 181000 M⁻¹ s⁻¹.
The molecule B15 showed a Kd of 37 nM, a koff of 0.00015 s⁻¹ and a kon of 4060 M⁻¹ s⁻¹.
